Results on one protein are retold here after paper PMC5374420, “In Search of Small Molecule Inhibitors Targeting the Flexible CK2 Subunit Interface” (Pharmaceuticals, 2017).

The target in this series is T1, CK2α of MCF-10A cells (human (endogenous in MCF-10A), UniProt P68400 1-391).
T1 construct: protein kinase CK2 catalytic subunit alpha, endogenous; also called free CK2α subunit; source: endogenous, MCF-10A cells and cell extracts (WT or CK2β-depleted)
Briefly: thermal shift assay in cell lysates; CK2β-depleted MCF-10A cell lysates (50 mM Tris-HCl pH 7.5, 150 mM NaCl, 2% glycerol) with 50 µM TAT or TAT-Pc 13, or PBS or CK2β, 30 min at room temperature; aliquots heated 3 min; CK2 activity of the supernatants. The following applies: one partner purified.

T1 sequence (P68400 whole entry): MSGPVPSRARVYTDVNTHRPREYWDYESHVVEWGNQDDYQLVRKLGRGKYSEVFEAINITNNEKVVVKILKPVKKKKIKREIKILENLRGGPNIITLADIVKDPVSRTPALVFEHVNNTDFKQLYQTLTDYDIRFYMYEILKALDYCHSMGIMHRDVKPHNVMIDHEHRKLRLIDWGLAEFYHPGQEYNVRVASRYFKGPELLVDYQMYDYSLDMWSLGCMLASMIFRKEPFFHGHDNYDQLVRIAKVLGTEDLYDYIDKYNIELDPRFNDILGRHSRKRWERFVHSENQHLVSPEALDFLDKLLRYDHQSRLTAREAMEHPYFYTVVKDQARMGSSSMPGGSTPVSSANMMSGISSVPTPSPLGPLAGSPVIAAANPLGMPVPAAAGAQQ

B1: recombinant CK2β (natural protein)
chain: not shown
notes: protein kinase CK2 regulatory subunit beta; also called protein kinase CK2 regulatory β subunit
As for B1, the “shift of the melting curve” value was found to be 3 °C.
